For test [1], the target named is HLA-A*02:03. Kind of test: IEDB peptide-MHC binding, purified MHC/direct/fluorescence; filed as Kd, often an IC50 or EC50 that approximates it; ≥ and ≤ were set here for values at or beyond the usual limits of such assays.
The target in test [2] is HLA-A*02:11. Described as above.
Test [3] concerns the target HLA-A*02:12. Described as above.
The target in test [4] is HLA-A*02:16. Described as above.
In test [5] the target is HLA-A*02:19. The test is described as above.
For test [6], the target named is HLA-A*03:01. Described as above.
In test [7] the target is HLA-A*24:03. The test is described as above.
In test [8] the target is HLA-A*29:02. Described as above.
Test [9] deals with HLA-A*68:02. The description is as above.
The target of test [10] is HLA-B*58:01. The description is as above.
Test [11] concerns the target HLA-A*02:01. The experiment in a line: IEDB peptide-MHC binding, purified MHC/competitive/fluorescence; filed as Kd, often an IC50 or EC50 that approximates it; ≥ and ≤ were set here for values at or beyond the usual limits of such assays.
The target of test [12] is HLA-A*26:01. The test is described as above.
Test [13] concerns the target HLA-A*69:01. The test is described as above.
Test [14] deals with HLA-B*15:01. Described as above.
The target of test [15] is HLA-B*18:01. Described as above.
Test [16] concerns the target HLA-B*27:03. The description is as above.
Test [17] has as its target HLA-B*39:01. The test is described as above.
The target of test [18] is HLA-B*46:01. The description is as above.
Test [19] concerns the target HLA-B*40:01. The experiment in a line: IEDB peptide-MHC binding, purified MHC/direct/fluorescence; filed as Kd, often an IC50 or EC50 that approximates it; ≥ and ≤ were set here for values at or beyond the usual limits of such assays.
Test [20] addresses HLA-B*15:17. Kind of test: IEDB peptide-MHC binding, purified MHC/competitive/fluorescence; filed as Kd, often an IC50 or EC50 that approximates it; ≥ and ≤ were set here for values at or beyond the usual limits of such assays. The settings on record: source organism: Zaire ebolavirus.
Test [21] addresses HLA-B*51:01. The test is described as above. The settings on record: source organism: Zaire ebolavirus.
Test [22] deals with HLA-B*57:01. The test is described as above. The settings on record: source organism: Zaire ebolavirus.
Test [23] deals with HLA-A*01:01. Kind of test: IEDB peptide-MHC binding, purified MHC/direct/fluorescence; filed as Kd, often an IC50 or EC50 that approximates it; ≥ and ≤ were set here for values at or beyond the usual limits of such assays.
Test [24] has as its target HLA-A*02:01. The test is described as above.
Test [25] has as its target HLA-A*11:01. Described as above.
Test [26] addresses HLA-A*26:01. The test is described as above.
Test [27] concerns the target HLA-A*30:01. The test is described as above.
Test [28] concerns the target HLA-A*31:01. Described as above.
The target of test [29] is HLA-A*69:01. Described as above.
Test [30] deals with HLA-B*07:02. The test is described as above.
In test [31] the target is HLA-B*08:01. The test is described as above.
Test [32] has as its target HLA-B*15:01. The test is described as above.
Test [33] deals with HLA-B*27:05. The description is as above.
Test [34] addresses HLA-B*44:02. The description is as above.
The mark [35] stands for this setting: source organism: Orthohantavirus andesense.
[36] abbreviates: source organism: Zaire ebolavirus.
Where [37] appears, read: source organism: Coxiella burnetii.
[38] abbreviates: source organism: Campylobacter jejuni RM1221.
Setting [39] is: source organism: Campylobacter jejuni.
[40] abbreviates: source organism: Escherichia coli O157:H7.
Where [41] appears, read: source organism: Brucella melitensis.

The term Kd denotes the constant that tells how readily two partners part at equilibrium. High values mean a looser complex, low ones a tighter complex. Consider VSANVKGNW, for which the Kd in [1] (setting [35]), in test [2] (setting [35]), in test [3] (setting [35]), in test [4] (setting [35]), in test [5] (setting [35]) and in [6] (setting [35]) was at least 20 µM in each case. Moreover, the Kd in test [7] (setting [35]) is at least 20 µM; in [8] (setting [35]), at least 20 µM; in [9] (setting [35]), at least 20 µM; in test [10] (setting [35]), 0.0023 µM; in test [11] (setting [35]), at least 20 µM; in test [12] (setting [35]), at least 20 µM. Besides, the Kd in test [13] (setting [35]), in test [14] (setting [35]), in test [15] (setting [35]), in test [16] (setting [35]), in test [17] (setting [35]) and in test [18] (setting [35]) was at least 20 µM each time.

For AENCYNLEI, the Kd in [1] (setting [36]), in test [2] (setting [36]), in test [3] (setting [36]), in test [4] (setting [36]), in [5] (setting [36]) and in [6] (setting [36]) was at least 20 µM throughout. The Kd is at least 20 µM in test [7] (setting [36]); at least 20 µM in [8] (setting [36]); at least 20 µM in test [9] (setting [36]); 0.0822 µM in [19] (setting [36]); at least 20 µM in test [11] (setting [36]); at least 20 µM in test [12] (setting [36]). The Kd in [13] (setting [36]), in test [14] (setting [36]), in test [20], in test [15] (setting [36]), in [16] (setting [36]) and in [17] (setting [36]) was at least 20 µM throughout. The Kd in test [18] (setting [36]), in test [21] and in test [22] was at least 20 µM in each case.

Take KGPDKLQVY: the Kd in test [23] (setting [37]) is at least 20 µM; in test [24] (setting [37]), at least 20 µM; in test [6] (setting [37]), at least 20 µM; in test [25] (setting [37]), at least 20 µM; in test [26] (setting [37]), at least 20 µM; in [27] (setting [37]) it was 12.3 µM. The Kd was at least 20 µM in test [28] (setting [37]); at least 20 µM in [29] (setting [37]); at least 20 µM in test [30] (setting [37]); at least 20 µM in [31] (setting [37]); 2.42 µM in test [32] (setting [37]); at least 20 µM in [33] (setting [37]). For the same sequence, the Kd in test [19] (setting [37]), in test [34] (setting [37]) and in test [10] (setting [37]) was at least 20 µM in each case.

On to ALIVAIWDK, for which the Kd in test [23] (setting [38]) was at least 20 µM; in test [24] (setting [39]) it was at least 20 µM; in test [6] (setting [39]) it was 2.7 µM; in [25] (setting [39]) it was 0.553 µM; in [7] (setting [38]) it was at least 20 µM; in [26] (setting [38]) it was at least 20 µM. Besides, the Kd is 8.54 µM in test [27] (setting [39]); 11.8 µM in [28] (setting [39]); at least 20 µM in [29] (setting [38]); at least 20 µM in test [30] (setting [38]); at least 20 µM in [31] (setting [38]); at least 20 µM in [32] (setting [38]). Also, the Kd in test [33] (setting [38]), in [19] (setting [38]), in [34] (setting [38]) and in test [10] (setting [38]) was at least 20 µM throughout.

On to GITGGHIPK, for which the Kd in [23] (setting [40]) was at least 20 µM; in test [24] (setting [40]), at least 20 µM; in test [6] (setting [40]), 0.392 µM; in test [25] (setting [40]), 0.101 µM; in test [7] (setting [40]), at least 20 µM; in test [26] (setting [40]), at least 20 µM. Moreover, the Kd is 0.0722 µM in test [27] (setting [40]); at least 20 µM in test [28] (setting [40]); at least 20 µM in test [29] (setting [40]); at least 20 µM in [30] (setting [40]); at least 20 µM in test [31] (setting [40]); at least 20 µM in [32] (setting [40]). The Kd in test [33] (setting [40]), in [19] (setting [40]), in [34] (setting [40]) and in test [10] (setting [40]) was at least 20 µM in each case.

On to RLWNGRRCR, for which the Kd is at least 20 µM in test [23] (setting [41]); at least 20 µM in [24] (setting [41]); 0.634 µM in test [6] (setting [41]); 11.4 µM in test [25] (setting [41]); at least 20 µM in [7] (setting [41]); at least 20 µM in test [26] (setting [41]). The Kd was 1.75 µM in [27] (setting [41]); 0.0615 µM in test [28] (setting [41]); at least 20 µM in [29] (setting [41]); at least 20 µM in test [30] (setting [41]); at least 20 µM in [31] (setting [41]); at least 20 µM in test [32] (setting [41]). Also, the Kd was 2.04 µM in test [33] (setting [41]), at least 20 µM in [19] (setting [41]), at least 20 µM in [34] (setting [41]) and at least 20 µM in test [10] (setting [41]).

The record behind these values is the Immune Epitope Database (IEDB).
